Publication PMC12228687, “Harnessing protein language model for structure-based discovery of highly efficient and robust PET hydrolases” (Nature Communications, 2025)

What was measured:
purified protein [1] = substrate: CCCC(=O)Oc1ccc([N+](=O)[O-])cc1; experiment: purified protein; type: biochemical, Kibdelosporangium banguiense; details: 10 mM potassium phosphate pH 8.0 (stock buffer), 50 °C, 3 min, 0.5 µg/mL enzyme, 0.2-1.8 mM pNPB
purified protein [2] = substrate: CCCC(=O)Oc1ccc([N+](=O)[O-])cc1; experiment: purified protein; type: biochemical, unidentified prokaryotic organism; details: 10 mM potassium phosphate pH 8.0 (stock buffer), 50 °C, 3 min, 0.5 µg/mL enzyme, 0.2-1.8 mM pNPB

B1: KbPETase (APET-14) (Kibdelosporangium banguiense) (protein)
chain: DEIGQAPTAANITGDGSFSTSSSAIFGQSGFGGGTAYYPNTAGKYPVVAFAPGFLSDWNALNWLGPRVASWGFVVVGVNTNTPFDFPDARGDQLLAALNWAVNSAPAAVRDKADGSRRGVSGWSMGGGGTLEALAKDTTGTVKAGVPLAPWHTNKTWSKVTEPVFIIGGQNDSVAAPASHAIPFYNSLGGPKSYLERAGADHFFPTKSNGTVSRAVVSFFKRHVSADTRFTPFLCGFSGLDVSNFRSNSC
notes: predicted signal peptide (SignalP) removed; N-terminal His-tag, pET-28a(+) NdeI/NotI; E. coli BL21(DE3); Ni-NTA purified
Km (purified protein [1]): 1040 ± 201 µM
kcat (purified protein [1]): 0.27 ± 0.021 s⁻¹
kcat/Km (purified protein [1]): 263 ± 31 M⁻¹ s⁻¹

B2: LCC (unidentified prokaryotic organism) (protein)
chain: QSNPYQRGPNPTRSALTADGPFSVATYTVSRLSVSGFGGGVIYYPTGTSLTFGGIAMSPGYTADASSLAWLGRRLASHGFVVLVINTNSRFDYPDSRASQLSAALNYLRTSSPSAVRARLDANRLAVAGHSMGGGGTLRIAEQNPSLKAAVPLTPWHTDKTFNTSVPVLIVGAEADTVAPVSQHAIPFYQNLPSTTPKVYVELDNASHFAPNSNNAAISVYTISWMKLWVDNDTRYRQFLCNVNDPALSDFRTNNRHCQ
notes: wild-type LCC (LCC-ICCG is a separate variant)
Km (purified protein [2]): 1053 ± 289 µM
kcat (purified protein [2]): 0.186 ± 0.021 s⁻¹
kcat/Km (purified protein [2]): 208 ± 17 M⁻¹ s⁻¹
